Data on 1 substance can be found in patent US20130012427A1.

What all share (test): cell-based or functional assay
Test [1] has as its target human amylin 3(a) receptor (human calcitonin receptor co-expressed with RAMP-3) (human) (UniProt P30988).
The target in test [2] is human calcitonin (a) receptor (human) (UniProt P30988).
For test [3], the target named is human amylin 3(a) receptor (human calcitonin receptor with RAMP-3) (human) (UniProt P30988).
Chain of human amylin 3(a) receptor (human calcitonin receptor with RAMP-3) (human) (P30988 25-474, chain 1 of 2): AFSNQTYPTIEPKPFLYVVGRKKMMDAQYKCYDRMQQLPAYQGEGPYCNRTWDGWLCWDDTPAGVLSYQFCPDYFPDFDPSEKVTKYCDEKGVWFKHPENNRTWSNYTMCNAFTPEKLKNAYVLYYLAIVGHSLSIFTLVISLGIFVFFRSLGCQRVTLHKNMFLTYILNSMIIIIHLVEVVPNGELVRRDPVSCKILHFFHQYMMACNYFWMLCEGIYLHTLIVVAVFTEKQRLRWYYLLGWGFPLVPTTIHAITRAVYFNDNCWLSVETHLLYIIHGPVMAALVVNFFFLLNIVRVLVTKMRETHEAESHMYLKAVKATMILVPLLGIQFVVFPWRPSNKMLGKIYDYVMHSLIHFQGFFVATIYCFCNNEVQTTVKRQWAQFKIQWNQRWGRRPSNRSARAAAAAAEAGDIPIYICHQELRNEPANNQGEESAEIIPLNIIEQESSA
Chain of human amylin 3(a) receptor (human calcitonin receptor with RAMP-3) (human) (O60896 24-148, chain 2 of 2, further chain): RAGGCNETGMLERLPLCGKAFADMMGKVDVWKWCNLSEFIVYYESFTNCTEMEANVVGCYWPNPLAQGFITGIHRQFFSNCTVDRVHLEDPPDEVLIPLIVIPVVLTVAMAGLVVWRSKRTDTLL

Chain of human calcitonin (a) receptor (human) (P30988 25-474): as the sequence (P30988 25-474, chain 1 of 2) above
Chain of human amylin 3(a) receptor (human calcitonin receptor co-expressed with RAMP-3) (human) (P30988 25-474, chain 1 of 2): as above
Chain of human amylin 3(a) receptor (human calcitonin receptor co-expressed with RAMP-3) (human) (O60896 24-148, chain 2 of 2, further chain): as the sequence (O60896 24-148, chain 2 of 2, further chain) above

For the substance “N-alpha-(19-carboxynonadecanoyl)-Glu-Glu-Arg-[Glu1,Pro37]-pramlintide (peptide)”, the Amylin receptor human EC50 (pM) in test [1] and in test [3] was 45 pM each time. Moreover, the CTa receptor human EC50 (pM) in test [2] came to 61.5 pM.
